Assay results from article PMC10042821, “Cryo-EM structure of human eIF5A-DHS complex reveals the molecular basis of hypusination-associated neurodegenerative disorders” (Nature Communications, 2023).

Columns and labels:
Test in all cases: MST; Monolith NT.115; 8.32 nM His-tagged DHS labelled with RED-tris-NTA, eIF5A titrated 0.00175-57.5 uM; 50 mM Tris, 200 mM NaCl, 5 mM beta-ME pH 8; free buffer
Conditions in all cases: both partners purified
[1] = target: T1, deoxyhypusine synthase H288A, His-tagged (human, UniProt P49366 1-369, H288A)
T1 construct: deoxyhypusine synthase (DHS), Homo sapiens, UniProt P49366, residues 1-369; source: E. coli, purified; His-tagged protein labelled with RED-tris-NTA for MST; not shown: His6, N-terminal, kept
T1 sequence (looked up): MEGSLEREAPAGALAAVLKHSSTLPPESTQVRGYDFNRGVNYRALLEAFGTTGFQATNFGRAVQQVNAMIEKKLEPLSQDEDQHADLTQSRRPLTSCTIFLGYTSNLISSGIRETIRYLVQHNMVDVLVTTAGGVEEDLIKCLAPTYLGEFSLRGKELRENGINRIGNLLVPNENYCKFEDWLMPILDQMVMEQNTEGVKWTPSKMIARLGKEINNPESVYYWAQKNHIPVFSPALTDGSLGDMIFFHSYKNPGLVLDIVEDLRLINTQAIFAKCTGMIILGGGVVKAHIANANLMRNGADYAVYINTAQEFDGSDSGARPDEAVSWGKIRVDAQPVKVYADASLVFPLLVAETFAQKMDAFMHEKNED

[2] = target: T2, deoxyhypusine synthase K329A, His-tagged (human, UniProt P49366 1-369, K329A)
T2 construct: deoxyhypusine synthase (DHS), Homo sapiens, UniProt P49366, residues 1-369; also called DHS^K329A; source: E. coli, purified; His-tagged protein labelled with RED-tris-NTA for MST; not shown: His6, N-terminal, kept
T2 sequence (looked up): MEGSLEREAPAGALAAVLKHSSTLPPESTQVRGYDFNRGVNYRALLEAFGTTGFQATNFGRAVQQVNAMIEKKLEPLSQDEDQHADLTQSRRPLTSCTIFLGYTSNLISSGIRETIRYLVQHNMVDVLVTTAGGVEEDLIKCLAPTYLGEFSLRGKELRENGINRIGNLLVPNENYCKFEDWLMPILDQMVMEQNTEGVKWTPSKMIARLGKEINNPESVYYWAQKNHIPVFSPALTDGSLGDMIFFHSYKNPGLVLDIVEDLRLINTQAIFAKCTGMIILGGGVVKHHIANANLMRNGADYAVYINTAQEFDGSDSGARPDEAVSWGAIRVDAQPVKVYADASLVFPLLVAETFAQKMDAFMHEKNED

[3] = target: T3, deoxyhypusine synthase E137A, His-tagged (human, UniProt P49366 1-369, E137A)
T3 construct: deoxyhypusine synthase (DHS), Homo sapiens, UniProt P49366, residues 1-369; source: E. coli, purified; His-tagged protein labelled with RED-tris-NTA for MST; not shown: His6, N-terminal, kept
T3 sequence (looked up): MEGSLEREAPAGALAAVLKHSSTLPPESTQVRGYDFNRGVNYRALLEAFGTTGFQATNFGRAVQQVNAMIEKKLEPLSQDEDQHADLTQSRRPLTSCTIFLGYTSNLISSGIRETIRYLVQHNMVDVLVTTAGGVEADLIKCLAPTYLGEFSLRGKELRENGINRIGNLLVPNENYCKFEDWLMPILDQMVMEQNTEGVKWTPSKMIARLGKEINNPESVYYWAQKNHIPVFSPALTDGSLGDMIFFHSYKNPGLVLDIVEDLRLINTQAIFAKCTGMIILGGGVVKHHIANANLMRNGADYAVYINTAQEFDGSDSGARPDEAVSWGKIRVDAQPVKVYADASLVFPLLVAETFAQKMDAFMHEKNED

[4] = target: T4, deoxyhypusine synthase N173S, patient-derived variant, His-tagged (human, UniProt P49366 1-369, N173S)
T4 construct: deoxyhypusine synthase (DHS), Homo sapiens, UniProt P49366, residues 1-369, pathological variant N173S; also called DHS^N173S; source: E. coli, purified from the soluble fraction; His-tagged protein labelled with RED-tris-NTA for MST; not shown: His6, N-terminal, kept
T4 sequence (looked up): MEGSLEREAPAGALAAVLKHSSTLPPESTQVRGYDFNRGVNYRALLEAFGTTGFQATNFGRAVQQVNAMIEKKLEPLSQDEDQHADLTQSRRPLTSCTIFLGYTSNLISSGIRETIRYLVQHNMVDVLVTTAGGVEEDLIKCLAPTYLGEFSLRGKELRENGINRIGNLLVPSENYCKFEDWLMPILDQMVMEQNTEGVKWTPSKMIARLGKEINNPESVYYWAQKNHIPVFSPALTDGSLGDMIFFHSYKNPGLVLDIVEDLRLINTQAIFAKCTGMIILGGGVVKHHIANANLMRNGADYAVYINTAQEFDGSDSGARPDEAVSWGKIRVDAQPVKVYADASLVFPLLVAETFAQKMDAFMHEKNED

[5] = target: T5, deoxyhypusine synthase D243A, His-tagged (human, UniProt P49366 1-369, D243A)
T5 construct: deoxyhypusine synthase (DHS), Homo sapiens, UniProt P49366, residues 1-369; source: E. coli, purified; His-tagged protein labelled with RED-tris-NTA for MST; not shown: His6, N-terminal, kept
T5 sequence (looked up): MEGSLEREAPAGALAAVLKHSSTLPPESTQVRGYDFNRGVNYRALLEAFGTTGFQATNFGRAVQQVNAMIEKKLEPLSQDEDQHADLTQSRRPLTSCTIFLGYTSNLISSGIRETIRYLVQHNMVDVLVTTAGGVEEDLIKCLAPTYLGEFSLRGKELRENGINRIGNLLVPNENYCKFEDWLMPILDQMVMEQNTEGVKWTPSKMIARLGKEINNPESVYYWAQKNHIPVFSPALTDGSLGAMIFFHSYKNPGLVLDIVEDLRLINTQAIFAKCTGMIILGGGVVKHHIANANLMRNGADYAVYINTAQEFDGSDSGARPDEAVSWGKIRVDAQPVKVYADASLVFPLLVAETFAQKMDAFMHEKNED

Kd [1]: 49.7 ± 28.7 nM
Kd [2]: 129 ± 37.9 nM
Kd [3]: > 1000 nM
Kd [4]: 115 ± 22.3 nM
Kd [5]: 511 ± 182 nM
B1: eukaryotic translation factor 5A-1 (eIF5A-1), residues 15-151 (domain or fragment)
chain: not shown
notes: eIF5A1 (eukaryotic translation factor 5A-1), human, residues 15-151, from pET28-MHL (Addgene); The general purification removes the His tag with TEV; A His-tagged eIF5A1 was used only in the hypusination assay; source: E. coli, purified (HisTrap, TEV cleavage, reverse HisTrap, SEC); not shown: His tag, N-terminal, cleaved
